The results in this text go back to publication doi:10.1101/2023.06.10.544460 (bioRxiv, 2023).

Several values for one entry are separate records, joined by “and”; a condition that tells them apart may be missing. Identical values can stand only once.

This series concerns the molecule itself. Description: cryo-EM structure.

B1: HMPV nucleoprotein N, full length, strain NL1-00 (A1), RNA-bound oligomers (N-RNA) (natural protein, UniProt Q91F57 1-394, looked up)
chain: MSLQGIHLSDLSYKHAILKESQYTIKRDVGTTTAVTPSSLQQEITLLCGEILYAKHADYKYAAEIGIQYISTALGSERVQQILRNSGSEVQVVLTRTYSLGKIKNNKGEDLQMLDIHGVEKSWVEEIDKEARKTMATLLKESSGNIPQNQRPSAPDTPIILLCVGALIFTKLASTIEVGLETTVRRANRVLSDALKRYPRMDIPKIARSFYDLFEQKVYHRSLFIEYGKALGSSSTGSKAESLFVNIFMQAYGAGQTMLRWGVIARSSNNIMLGHVSVQAELKQVTEVYDLVREMGPESGLLHLRQSPKAGLLSLANCPNFASVVLGNASGLGIIGMYRGRVPNTELFSAAESYAKSLKESNKINFSSLGLTDEEKEAAEHFLNVSDDSQNDYE
Take B1: the stoichiometry N (usually the number of molecules, sites or subunits per partner or assembly) is 10 protomers and 11 protomers and 12 protomers and ≥ 12 protomers.
